The supplement of paper PMC9112550, “Optimization of the antimicrobial peptide Bac7 by deep mutational scanning” (BMC Biology, 2022)

Test system: Escherichia coli TOP10
Test: shrunken log2 fold change of peptide-encoding DNA abundance (4.5 h post-induction vs induction); higher = less antimicrobial activity (less host growth inhibition)
Details: time post-induction: 4.5 h; library: site-saturation at positions 5, 18, 19, 20
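Also: peptides expressed intracellularly from a pBAD plasmid library in pooled LB shake-flask culture, induced with 0.3% L-arabinose, DNA abundance read by NGS, three biological replicates, DESeq2 with apeglm shrinkage.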

RRIRSRPPRLPRPRPRPITTPRP was tested, and the “shrunken log2 fold change” value was -0.578.
In the case of RRIRARPPRLPRPRPRPRAWPRP, the “shrunken log2 fold change” value is reported as 0.699.
In the case of RRIRYRPPRLPRPRPRPCINPRP, the “shrunken log2 fold change” value is reported as -0.00114.
RRIRPRPPRLPRPRPRPDQVPRP was tested, and the “shrunken log2 fold change” value was 0.0258.
In the case of RRIRTRPPRLPRPRPRPTSWPRP, the “shrunken log2 fold change” value is reported as 0.139.
With RRIRSRPPRLPRPRPRPMFCPRP the “shrunken log2 fold change” value was -0.285.
RRIRRRPPRLPRPRPRPSCQPRP was tested, and the “shrunken log2 fold change” value was -0.0699.
In the case of RRIRLRPPRLPRPRPRPETYPRP, the “shrunken log2 fold change” value is reported as -0.215.
For RRIRLRPPRLPRPRPRPAAQPRP, the “shrunken log2 fold change” value was 1.25.
RRIRIRPPRLPRPRPRPIFNPRP was tested, and the “shrunken log2 fold change” value was -0.589.
For RRIRARPPRLPRPRPRPPPLPRP, the “shrunken log2 fold change” value was 1.84.
With RRIRPRPPRLPRPRPRPQKHPRP the “shrunken log2 fold change” value was 0.865.
In the case of RRIRSRPPRLPRPRPRPESRPRP, the “shrunken log2 fold change” value is reported as -0.0244.
In the case of RRIRTRPPRLPRPRPRPKLYPRP, the “shrunken log2 fold change” value is reported as -0.363.
In the case of RRIRQRPPRLPRPRPRPRCGPRP, the “shrunken log2 fold change” value is reported as 0.236.
With RRIRFRPPRLPRPRPRPMVMPRP the “shrunken log2 fold change” value was -0.696.
With RRIRGRPPRLPRPRPRPIQSPRP the “shrunken log2 fold change” value was -0.0426.
In the case of RRIRWRPPRLPRPRPRPYVAPRP, the “shrunken log2 fold change” value is reported as -0.492.
With RRIRLRPPRLPRPRPRPHAFPRP the “shrunken log2 fold change” value was -0.208.
In the case of RRIRPRPPRLPRPRPRPSHDPRP, the “shrunken log2 fold change” value is reported as -0.339.
RRIRYRPPRLPRPRPRPDAFPRP was tested, and the “shrunken log2 fold change” value was -1.27.
In the case of RRIRCRPPRLPRPRPRPVDKPRP, the “shrunken log2 fold change” value is reported as -0.184.
For RRIRQRPPRLPRPRPRPTAGPRP, the “shrunken log2 fold change” value was 0.144.
In the case of RRIRARPPRLPRPRPRPSTYPRP, the “shrunken log2 fold change” value is reported as -0.356.
For RRIRCRPPRLPRPRPRPYGIPRP, the “shrunken log2 fold change” value was -0.128.
For RRIRGRPPRLPRPRPRPAFPPRP, the “shrunken log2 fold change” value was 0.313.
With RRIRHRPPRLPRPRPRPALKPRP the “shrunken log2 fold change” value was -0.322.
In the case of RRIRPRPPRLPRPRPRPHQIPRP, the “shrunken log2 fold change” value is reported as 1.04.
RRIRIRPPRLPRPRPRPSEGPRP was tested, and the “shrunken log2 fold change” value was -0.0262.
In the case of RRIRCRPPRLPRPRPRPKLQPRP, the “shrunken log2 fold change” value is reported as 0.155.
For RRIRGRPPRLPRPRPRPCSPPRP, the “shrunken log2 fold change” value was 0.0454.
RRIRIRPPRLPRPRPRPKYNPRP was tested, and the “shrunken log2 fold change” value was -1.01.
In the case of RRIRIRPPRLPRPRPRPASLPRP, the “shrunken log2 fold change” value is reported as -0.0288.
In the case of RRIRCRPPRLPRPRPRPWIDPRP, the “shrunken log2 fold change” value is reported as -0.00146.
With RRIRRRPPRLPRPRPRPTRPPRP the “shrunken log2 fold change” value was 1.02.
For RRIRYRPPRLPRPRPRPWWYPRP, the “shrunken log2 fold change” value was -0.139.
RRIRRRPPRLPRPRPRPDAIPRP was tested, and the “shrunken log2 fold change” value was -0.0233.
With RRIRQRPPRLPRPRPRPETWPRP the “shrunken log2 fold change” value was 0.00978.
For RRIRMRPPRLPRPRPRPADHPRP, the “shrunken log2 fold change” value was 0.173.
With RRIRCRPPRLPRPRPRPFYGPRP the “shrunken log2 fold change” value was -0.262.
RRIRKRPPRLPRPRPRPDKYPRP was tested, and the “shrunken log2 fold change” value was -0.309.
RRIRFRPPRLPRPRPRPNSQPRP was tested, and the “shrunken log2 fold change” value was -0.496.
In the case of RRIRARPPRLPRPRPRPIRSPRP, the “shrunken log2 fold change” value is reported as -0.129.
RRIRARPPRLPRPRPRPHTNPRP was tested, and the “shrunken log2 fold change” value was -0.227.
For RRIRKRPPRLPRPRPRPLCPPRP, the “shrunken log2 fold change” value was -0.145.
In the case of RRIRTRPPRLPRPRPRPSLPPRP, the “shrunken log2 fold change” value is reported as -0.0317.
In the case of RRIRFRPPRLPRPRPRPSCWPRP, the “shrunken log2 fold change” value is reported as 0.144.
With RRIRPRPPRLPRPRPRPQGCPRP the “shrunken log2 fold change” value was -0.0849.
In the case of RRIRQRPPRLPRPRPRPQNHPRP, the “shrunken log2 fold change” value is reported as -0.481.
For RRIRLRPPRLPRPRPRPWPTPRP, the “shrunken log2 fold change” value was 0.0538.
RRIRVRPPRLPRPRPRPYNMPRP was tested, and the “shrunken log2 fold change” value was -0.979.
With RRIRPRPPRLPRPRPRPPAKPRP the “shrunken log2 fold change” value was 0.657.
RRIRIRPPRLPRPRPRPREDPRP was tested, and the “shrunken log2 fold change” value was -0.036.
For RRIRWRPPRLPRPRPRPGDAPRP, the “shrunken log2 fold change” value was 0.418.
For RRIRIRPPRLPRPRPRPAHYPRP, the “shrunken log2 fold change” value was -0.153.
In the case of RRIRQRPPRLPRPRPRPALDPRP, the “shrunken log2 fold change” value is reported as 0.296.
For RRIRGRPPRLPRPRPRPQTCPRP, the “shrunken log2 fold change” value was 0.403.
With RRIRMRPPRLPRPRPRPGYHPRP the “shrunken log2 fold change” value was 0.0695.
For RRIRQRPPRLPRPRPRPLRFPRP, the “shrunken log2 fold change” value was -0.041.
For RRIRARPPRLPRPRPRPLDQPRP, the “shrunken log2 fold change” value was 1.44.
With RRIRIRPPRLPRPRPRPADAPRP the “shrunken log2 fold change” value was -0.291.
With RRIRTRPPRLPRPRPRPSQIPRP the “shrunken log2 fold change” value was -0.0567.
In the case of RRIRARPPRLPRPRPRPYLWPRP, the “shrunken log2 fold change” value is reported as 0.134.
RRIRARPPRLPRPRPRPCLRPRP was tested, and the “shrunken log2 fold change” value was 0.0978.
RRIRIRPPRLPRPRPRPVLRPRP was tested, and the “shrunken log2 fold change” value was -0.0796.
With RRIRVRPPRLPRPRPRPKWHPRP the “shrunken log2 fold change” value was -0.123.
RRIRNRPPRLPRPRPRPWIMPRP was tested, and the “shrunken log2 fold change” value was -1.05.
RRIRQRPPRLPRPRPRPCGKPRP was tested, and the “shrunken log2 fold change” value was -0.116.
For RRIRQRPPRLPRPRPRPPMYPRP, the “shrunken log2 fold change” value was -0.269.
For RRIRKRPPRLPRPRPRPWIIPRP, the “shrunken log2 fold change” value was -0.277.
For RRIRYRPPRLPRPRPRPKGPPRP, the “shrunken log2 fold change” value was -0.0132.
In the case of RRIRCRPPRLPRPRPRPWPAPRP, the “shrunken log2 fold change” value is reported as 0.375.
RRIRMRPPRLPRPRPRPMIDPRP was tested, and the “shrunken log2 fold change” value was -0.0842.
For RRIRARPPRLPRPRPRPWHWPRP, the “shrunken log2 fold change” value was 0.209.
RRIRPRPPRLPRPRPRPMWGPRP was tested, and the “shrunken log2 fold change” value was 0.0327.
With RRIRLRPPRLPRPRPRPYSFPRP the “shrunken log2 fold change” value was -0.841.
For RRIRARPPRLPRPRPRPNKTPRP, the “shrunken log2 fold change” value was -0.105.
RRIRARPPRLPRPRPRPCHEPRP was tested, and the “shrunken log2 fold change” value was -0.055.
With RRIRYRPPRLPRPRPRPENAPRP the “shrunken log2 fold change” value was 0.0607.
With RRIRLRPPRLPRPRPRPHPRPRP the “shrunken log2 fold change” value was 0.276.
In the case of RRIRVRPPRLPRPRPRPHPYPRP, the “shrunken log2 fold change” value is reported as -1.08.
With RRIRKRPPRLPRPRPRPAPEPRP the “shrunken log2 fold change” value was 1.26.
For RRIRDRPPRLPRPRPRPEVYPRP, the “shrunken log2 fold change” value was -0.00999.
In the case of RRIRQRPPRLPRPRPRPTELPRP, the “shrunken log2 fold change” value is reported as 0.124.
RRIRKRPPRLPRPRPRPEKQPRP was tested, and the “shrunken log2 fold change” value was -0.0582.
With RRIRPRPPRLPRPRPRPHAPPRP the “shrunken log2 fold change” value was 0.082.
For RRIRCRPPRLPRPRPRPIKMPRP, the “shrunken log2 fold change” value was -0.185.
For RRIRLRPPRLPRPRPRPIKDPRP, the “shrunken log2 fold change” value was -0.374.
RRIRWRPPRLPRPRPRPMDLPRP was tested, and the “shrunken log2 fold change” value was -0.214.
RRIRLRPPRLPRPRPRPKRSPRP was tested, and the “shrunken log2 fold change” value was 0.558.
In the case of RRIRQRPPRLPRPRPRPCMIPRP, the “shrunken log2 fold change” value is reported as -0.0196.
RRIRTRPPRLPRPRPRPLQHPRP was tested, and the “shrunken log2 fold change” value was -0.257.
For RRIRCRPPRLPRPRPRPESHPRP, the “shrunken log2 fold change” value was 0.0129.
For RRIRIRPPRLPRPRPRPIGNPRP, the “shrunken log2 fold change” value was -0.104.
With RRIRFRPPRLPRPRPRPKLMPRP the “shrunken log2 fold change” value was 0.195.
For RRIRYRPPRLPRPRPRPLTAPRP, the “shrunken log2 fold change” value was -0.492.
For RRIRPRPPRLPRPRPRPHHMPRP, the “shrunken log2 fold change” value was -0.778.
For RRIRPRPPRLPRPRPRPFFLPRP, the “shrunken log2 fold change” value was -0.041.
With RRIRRRPPRLPRPRPRPFEWPRP the “shrunken log2 fold change” value was -0.0864.
In the case of RRIRGRPPRLPRPRPRPQWKPRP, the “shrunken log2 fold change” value is reported as 0.113.
In the case of RRIRWRPPRLPRPRPRPCTTPRP, the “shrunken log2 fold change” value is reported as -0.183.
RRIRSRPPRLPRPRPRPSQQPRP was tested, and the “shrunken log2 fold change” value was 0.0577.
For RRIRKRPPRLPRPRPRPKARPRP, the “shrunken log2 fold change” value was 0.0808.
In the case of RRIRDRPPRLPRPRPRPYVTPRP, the “shrunken log2 fold change” value is reported as -0.131.
For RRIRTRPPRLPRPRPRPLHDPRP, the “shrunken log2 fold change” value was -0.21.
With RRIRKRPPRLPRPRPRPVCTPRP the “shrunken log2 fold change” value was 2.01.
With RRIRKRPPRLPRPRPRPYLLPRP the “shrunken log2 fold change” value was -0.525.
With RRIRFRPPRLPRPRPRPRMDPRP the “shrunken log2 fold change” value was -0.0641.
In the case of RRIRPRPPRLPRPRPRPWNCPRP, the “shrunken log2 fold change” value is reported as -0.134.
In the case of RRIRDRPPRLPRPRPRPRRYPRP, the “shrunken log2 fold change” value is reported as 0.247.
With RRIRPRPPRLPRPRPRPVMDPRP the “shrunken log2 fold change” value was 0.0311.
RRIRERPPRLPRPRPRPFVLPRP was tested, and the “shrunken log2 fold change” value was -0.358.
With RRIRRRPPRLPRPRPRPALLPRP the “shrunken log2 fold change” value was -0.0136.
In the case of RRIRERPPRLPRPRPRPWTEPRP, the “shrunken log2 fold change” value is reported as 0.027.
In the case of RRIRGRPPRLPRPRPRPGPIPRP, the “shrunken log2 fold change” value is reported as 0.619.
RRIRGRPPRLPRPRPRPHCRPRP was tested, and the “shrunken log2 fold change” value was 0.376.
With RRIRERPPRLPRPRPRPDNKPRP the “shrunken log2 fold change” value was -0.75.
With RRIRPRPPRLPRPRPRPAGDPRP the “shrunken log2 fold change” value was 0.387.
With RRIRTRPPRLPRPRPRPTHIPRP the “shrunken log2 fold change” value was -0.308.
For RRIRRRPPRLPRPRPRPKSVPRP, the “shrunken log2 fold change” value was 0.0439.
In the case of RRIRRRPPRLPRPRPRPSVDPRP, the “shrunken log2 fold change” value is reported as 0.168.
In the case of RRIRGRPPRLPRPRPRPETVPRP, the “shrunken log2 fold change” value is reported as 0.431.
RRIRCRPPRLPRPRPRPRIYPRP was tested, and the “shrunken log2 fold change” value was -0.0107.
With RRIRHRPPRLPRPRPRPIVKPRP the “shrunken log2 fold change” value was -0.19.
With RRIRFRPPRLPRPRPRPDTPPRP the “shrunken log2 fold change” value was 1.5.
